Measurements reported in US11124550.

Target: human voltage-gated sodium channel hNav1.1 (hSCN1A) (human) (UniProt P35498)
Assay: cell-based or functional assay

recombinant Hm1b (peptide), sequence (P0DOC5 1-34, tags left off): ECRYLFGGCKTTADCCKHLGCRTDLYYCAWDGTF

Substance: recombinant Hm1b (peptide)
- EC50 for evoking sustained currents: 18.5 nM
